Measured values as given in PMC4837482, “The complex binding mode of the peptide hormone H2 relaxin to its receptor RXFP1” (Nature Communications, 2016).
Changes are numbered by the printed parent chain.

Assays:
Experiment in all cases: cAMP activity assay (pCRE β-galactosidase reporter), transfected HEK293T cells
Assay type in all cases: cell-based
RXFP1 G41D42-AA = biological target: T1, RXFP1 G41D42-AA (Homo sapiens, UniProt Q9HBX9, D64A/G63A)
T1 construct: transiently transfected human embryonic kidney (HEK) 293T cells expressing full-length RXFP1 and mutants; expressed in transfected cells; host or cells: HEK293T
T1 sequence (Q9HBX9 23-757 G63A/D64A limits assumed): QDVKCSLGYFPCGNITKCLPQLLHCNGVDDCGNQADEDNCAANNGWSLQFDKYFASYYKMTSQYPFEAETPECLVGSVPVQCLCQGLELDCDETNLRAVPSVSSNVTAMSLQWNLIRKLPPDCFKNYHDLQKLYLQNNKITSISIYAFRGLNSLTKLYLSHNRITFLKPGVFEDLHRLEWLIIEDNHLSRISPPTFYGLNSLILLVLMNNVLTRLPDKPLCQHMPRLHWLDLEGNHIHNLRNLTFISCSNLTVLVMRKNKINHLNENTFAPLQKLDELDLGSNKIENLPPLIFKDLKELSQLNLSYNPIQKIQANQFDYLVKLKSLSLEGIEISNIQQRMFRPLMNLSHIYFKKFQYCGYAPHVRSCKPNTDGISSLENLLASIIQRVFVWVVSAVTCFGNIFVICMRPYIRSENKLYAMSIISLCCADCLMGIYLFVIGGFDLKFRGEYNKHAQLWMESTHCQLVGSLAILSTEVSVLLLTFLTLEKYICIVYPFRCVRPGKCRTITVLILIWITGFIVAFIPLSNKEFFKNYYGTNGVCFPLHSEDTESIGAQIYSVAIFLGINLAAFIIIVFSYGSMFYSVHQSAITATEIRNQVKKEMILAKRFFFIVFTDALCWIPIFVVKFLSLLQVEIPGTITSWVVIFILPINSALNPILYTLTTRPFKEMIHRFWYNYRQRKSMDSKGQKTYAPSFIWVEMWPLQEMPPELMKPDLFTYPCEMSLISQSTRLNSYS
Method in brief: (§1)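 Stim: H2 relaxin in minimal media/1% DMSO; +ctrl 5 μM Forskolin, −ctrl vehicle. Plates frozen −80 °C o/n, lysed 10 min + 10 min in Na2HPO4 pH 8.0 buffers, CPRG substrate, A570. Data = % Forskolin max.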

RXFP1 F54A = biological target: T2, RXFP1 F54A (Homo sapiens, UniProt Q9HBX9, F76A); settings: construct F54A, ±s.e.m.
T2 construct: cells expressing full-length RXFP1 and mutants; expressed in transfected cells; host or cells: HEK293T
T2 sequence (Q9HBX9 23-757 F76A limits assumed): T1 sequence (Q9HBX9 23-757 G63A/D64A limits assumed) with A41G, A42D, F54A
Method in brief: as §1

RXFP1 S47L48-AA = biological target: T3, RXFP1 S47L48-AA (Homo sapiens, UniProt Q9HBX9, L70A/S69A); settings: construct S47L48-AA, ±s.e.m.
T3 construct: expressed in transfected cells; host or cells: HEK293T
T3 sequence (Q9HBX9 23-757 S69A/L70A limits assumed): T1 sequence (Q9HBX9 23-757 G63A/D64A limits assumed) with A41G, A42D, S47A, L48A
Method in brief: as §1

[1] = percentage of maximum response to 5 μM Forskolin

H2 relaxin: two-chain 6-kDa peptide hormone structurally related to insulin; recombinant human gene-2 H2 relaxin provided by Corthera
loss of H2 relaxin-stimulated cAMP activity (RXFP1 G41D42-AA; G41A/D42A RXFP1 versus wild-type RXFP1): 5,000 fold | H2 relaxin Emax (RXFP1 G41D42-AA; construct G41D42-AA, percentage of maximum response to 5 μM Forskolin, ±s.e.m.): 106.8±46.67 (3) % | H2 relaxin pEC50 (RXFP1 F54A; cAMP reporter): 10.23±0.13 (4) | H2 relaxin Emax (RXFP1 F54A; [1]): 104.89±10.48 (4) % | H2 relaxin pEC50 (RXFP1 S47L48-AA; cAMP reporter): 11.07±0.17 (3) | H2 relaxin Emax (RXFP1 S47L48-AA; [1]): 120.9±10.9 (3) %
